T1: N-terminal HIS-tagged human CD83 stably expressed on CHO cells (CHO-hCD83) (human, UniProt Q01151 20-205)
T1 construct: also called CHO cells expressing human CD83; not shown: N-terminal HIS tag
T1 sequence: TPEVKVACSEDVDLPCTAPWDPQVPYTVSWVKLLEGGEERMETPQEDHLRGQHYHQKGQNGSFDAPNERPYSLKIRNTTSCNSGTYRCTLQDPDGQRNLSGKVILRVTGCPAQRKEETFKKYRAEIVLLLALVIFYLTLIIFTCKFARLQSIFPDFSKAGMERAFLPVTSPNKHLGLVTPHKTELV

T2: N-terminal HIS-tagged mouse CD83 stably expressed on CHO cells (CHO-mCD83) (mouse, UniProt O88324 22-196)
T2 construct: whole, on cells; also called CHO cells expressing mouse CD83; not shown: N-terminal HIS tag
T2 sequence (looked up): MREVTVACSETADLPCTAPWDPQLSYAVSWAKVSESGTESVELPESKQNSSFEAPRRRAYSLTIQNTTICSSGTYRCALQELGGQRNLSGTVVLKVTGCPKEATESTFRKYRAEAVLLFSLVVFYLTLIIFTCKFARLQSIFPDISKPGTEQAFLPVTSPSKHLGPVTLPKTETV

B1: anti-CD83 antibody 60B10 (antibody, V domains shown)
VH: QVQLKESGPGLVKPSQSLSLTCSVTGFSITTGGYWWTWIRQFPGQKLEWMGYIFSSGNTNYNPSIKSRISITRDTSKNQFFLQLNSVTTEGDTARYYCARAYGKLGFDYWGQGTLVTVSS
VL: QPVLTQSPSASASLGNSVKITCTLSSQHSTYTIGWYQQHPDKAPKYVMYVNSDGSHSKGDGIPDRFSGSSSGAHRYLSISNIQPEDEADYFCGSSDSSGYVFGSGTQLTVL
notes: also called 60B10 Anti-human CD83
B2: anti-CD83 antibody 42C6 (antibody, V domains shown)
VH: QVQLKESGPGLVKPSQSMSLTCSVNGFSITSRYWWTWIRQFPGKNLEWMGYISYSGGTSYNPSLKSRISITRDTSKNQFFLHLNSVTTADTATYYCARDLYGTYFDYWGQGTMVTVSS
VL: QYELIQPKSVSESLGRTVTISCKRSSGNIGNNYVHWYQQHFGSSPKTVIYDDNKRPSGVPHRFSGSIDSSSNSASLTITDLQIEDEAEYYCQSAWVFGSGTKVTVL
notes: also called 42C6 Anti-mouse CD83
B3: anti-CD83 antibody 39A2 (antibody, V domains shown)
VH: QVQLKESGPGLVKPSQSMSLTCSVNGFSITSRYWWTWIRQFPGKNLEWMGYISYSGGTSYNPSLKSRISITRDTSKNQFFLHLNSVTTADTATYYCARDLYGTYFDYWGQGTLVTVSS
VL: QYELIQPKSVSESLGRTVTISCKRSSGNIGNNYVHWYQQHFGSSPKTVIYDDNKRPSGVPHRFSGSIDSSSNSASLTITDLQIEDEAEYYCQSAWVFGSGTKVTVL
notes: also called 39A2 Anti-mouse CD83

Tests used:
[1] = biological target: T1, N-terminal HIS-tagged human CD83 stably …; assay: flow cytometry on CHO-hCD83 cells, anti-hamster IgG secondary
Protocol: (§1) The generated antibodies were assayed for their ability to bind human CD83 or mouse CD83 stably expressed on CHO cells. To generate an expression vector for the production of the stable cell lines, a DNA fragment encoding an N-terminal HIS-tagged human CD83 (hCD83) or an N-terminal HIS-tagged mouse CD83 (mCD83) was cloned into the neomycin-resistance plasmid, pRKneo (Crowley et al., Proc Natl Acad Sci USA., 90(11):5021-5025, 1993), at the XbaI and XhoI sites to produce hCD83.pRKneo or mCD83.pRKneo, respectively. CHO cells were transfected with hCD83.pRKneo or mCD83.pRKneo using Fugene (Roche) and the top 10% of CD83 positive cells were sorted by FACS then selected with G418 ([…]; GIBCO) to generate the stable CHO-hCD83 or CHO-mCD83 cell line, respectively. CHO-hCD83 and CHO-mCD83 cells were resuspended in a FACS buffer containing PBS/2% BSA/2 mM EDTA and incubated with anti-human CD83 antibodies or anti-mouse CD83 antibodies for 30 minutes on ice. Cells were washed with FACS buffer and then incubated with a fluorochrome conjugated anti-hamster IgG secondary antibody for 30 minutes on ice in the dark. Cells were washed with FACS buffer and analyzed by flow cytometry on a LSR II flow cytometer using FACSDiva software (Becton Dickinson). Data analysis and construction of diagrams was done using FlowJo v.9.4.11.

[2] = biological target: T2, N-terminal HIS-tagged mouse CD83 stably …; assay: flow cytometry on CHO-mCD83 cells, anti-hamster IgG secondary
Protocol: as §1

Binder | binding result [1] | binding result [2]
B1 | binds | binds
B2 | no binding | binds
B3 | no binding | binds
